This note sets out measurements from the supplement of paper PMC10567573.

± gives the standard deviation.

The data set in a line: protein stability index of a GFP-peptide fusion (GPS, HEK-293T) (PSI 1-6); higher = more stable. The note with it: c terminus: a fixed tail appended.
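Also: 24-mer peptide tiles fused after GFP, lentivirally expressed, FACS-sorted into six equal bins by GFP/DsRed ratio, decoded by Illumina sequencing, PSI is the read-weighted mean bin number.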

For PPKASEQETAKEEDGSVELESQVQ [C18orf25], the protein stability index by setting is: (treatment: DMSO) 5.42 ± 0.17; (treatment: MLN4924 1 uM, 8 h) 5.67 ± 0.081.
Turning to PPLRVIVKDALFCSCLSDILRFIY [RHOBTB3], the protein stability index is, setting by setting: (treatment: DMSO) 2.78 ± 0.16; (treatment: MLN4924 1 uM, 8 h) 2.84 ± 0.27.
Regarding PPLSDPKQAKVVARRESGGRPIKP [BRD3], the protein stability index stood at 5.21 ± 0.15 (treatment: DMSO) and 5.12 ± 0.18 (treatment: MLN4924 1 uM, 8 h).
The corresponding values for PPNADLEQGFQEGVPNASVIMQVP [MFF] are 4.83 ± 0.18 and 4.72 ± 0.33.
For PPPPPSYDPDYIQCPYCQRRFNEN [ZC2HC1A], the protein stability index stood at 5.27 ± 0.34 (treatment: DMSO) and 5.44 ± 0.17 (treatment: MLN4924 1 uM, 8 h).
The corresponding values for PPQGGCGGGGCDRYEPLPPSLPAA [KCNA3] are 4.53 ± 0.16 and 4.7 ± 0.23.
Regarding PPRRSRSRSHDRLPYQRRYRERRD [CLK3], the protein stability index came to 4.51 ± 0.29 (treatment: DMSO) and 4.72 ± 0.32 (treatment: MLN4924 1 uM, 8 h).
For PPSYGGSSRYDDYSSSRDGYGGSR [RBMX], the protein stability index turned out to be 4.612 ± 0.036 (treatment: DMSO) and 4.66 ± 0.33 (treatment: MLN4924 1 uM, 8 h).
Taken in the same sequence, the figures for PPVVAHYDMSDTNSDPEVVNVDNL [C18orf25] were 5.43 ± 0.18 and 5.46 ± 0.31.
Taken in the same sequence, the figures for PQDLAPQVSAHHRSQESLTSQESE [TBC1D10A] were 5.64 ± 0.15 and 5.56 ± 0.23.
The corresponding values for PQGLFVEALSVPLSLCVSSHLALP [CLPTM1] are 2.96 ± 0.59 and 2.91 ± 0.41.
Regarding PQSSKSTVVKSLIDNSSEIEDEDQ [FAN1], the protein stability index was found to be 5.65 ± 0.14 (treatment: DMSO) and 5.6 ± 0.25 (treatment: MLN4924 1 uM, 8 h).
Taken in the same sequence, the figures for PRSAEPGYLVTKVVAVDRDSGQNA [PCDHGA10] were 4.77 ± 0.16 and 4.7 ± 0.29.
Taken in the same sequence, the figures for PSLLELAWEKLLAAFPNLANLSRT [KLHDC10] were 2.56 ± 0.21 and 2.55 ± 0.24.
With PSNARGPILSRSTSTGSAASSGSN [SPRY1], the protein stability index is 4.96 ± 0.17 (treatment: DMSO) and 5.01 ± 0.12 (treatment: MLN4924 1 uM, 8 h).
The corresponding values for PSPSTLEPHPRPLLQRELMVPGTR [TNXB] are 4.4 ± 0.24 and 4.36 ± 0.59.
The corresponding values for PSPVRAPAPSPAKEERKTEVVMNS [PALM] are 5.35 ± 0.36 and 5.53 ± 0.13.
On to PSQDERMRSPQNLHSQEDDDSSSE [NOL4L], for which the protein stability index was 5.62 ± 0.14 (treatment: DMSO) and 5.56 ± 0.21 (treatment: MLN4924 1 uM, 8 h).
The corresponding values for PSQRLVQNCLWTLRNLSDAATKQE [CTNNB1] are 3.31 ± 0.18 and 3.19 ± 0.25.
Taken in the same sequence, the figures for PSSMDLLIQDSPDSSTSPKGKQPT [NANOGP8] were 5.2 ± 0.2 and 5.3 ± 0.18.
Taken in the same sequence, the figures for PSSQKALLLELKGLQEEPVEGFRV [CDC34] were 3.68 ± 0.14 and 3.47 ± 0.14.
Regarding PTDRNLCHFQALGCRTTHSNQEVL [PYCR3], the protein stability index by setting is: (treatment: DMSO) 2.49 ± 0.35; (treatment: MLN4924 1 uM, 8 h) 2.37 ± 0.22.
The corresponding values for PTFRFLTKMWHPNIYENGDVCISI [UBE2R2] are 3.01 ± 0.68 and 3.15 ± 0.71.
Taken in the same sequence, the figures for PTHQAHTVGFLDEAIQPYRDRLRS [TRIM15] were 4.52 ± 0.039 and 4.44 ± 0.13.
Regarding PVAQSTDAIRGKVGYTRGLHVWQI [SPSB1], the protein stability index (treatment: DMSO) is 2.15 ± 0.13 and the protein stability index (treatment: MLN4924 1 uM, 8 h) stood at 2.21 ± 0.17.
Taken in the same sequence, the figures for PVTRNERHSYQVYRQPIPVQELVL [NET1] were 2.79 ± 0.23 and 2.88 ± 0.23.
The corresponding values for QAGSSQGLSLCQFQNFSLHDPLYG [LPCAT4] are 3 ± 0.41 and 2.98 ± 0.31.
QAIDATVAAELLNHLLESMPLREG [HES6] yielded a protein stability index (treatment: DMSO) of 2.43 ± 0.41 and a protein stability index (treatment: MLN4924 1 uM, 8 h) of 2.3 ± 0.28.
The corresponding values for QALQAGPEGARRGLGVLRALGSRG [FANCE] are 4.38 ± 0.33 and 4.31 ± 0.26.
Consider QAPPVPGPPPGAPHTPQTPGQGGP [NR2F2], for which the protein stability index reads like this: (treatment: DMSO) 5.22 ± 0.56; (treatment: MLN4924 1 uM, 8 h) 5.05 ± 0.38.
In the case of QEQEIDGKSLLLMTRNDVLTGLQL [SAMD13], the protein stability index was found to be 3.23 ± 0.23 (treatment: DMSO) and 3.36 ± 0.24 (treatment: MLN4924 1 uM, 8 h).
With QEVLSLRRENSTLDVECHEKEKHV [SASS6], the protein stability index reads like this: (treatment: DMSO) 5.2 ± 0.38; (treatment: MLN4924 1 uM, 8 h) 5.52 ± 0.4.
QEYQVLLDVRARLECEINTYRSLL [KRT33B]: the protein stability index runs as follows: (treatment: DMSO) 2.25 ± 0.34; (treatment: MLN4924 1 uM, 8 h) 2.19 ± 0.26.
As for QGKDWGFKKFIRRDFLLDEANGLL [SPOPL], the protein stability index is, setting by setting: (treatment: DMSO) 2.72 ± 0.27; (treatment: MLN4924 1 uM, 8 h) 2.31 ± 0.23.
Turning to QGRFCTIFRSYSRGAQGILLVYDI [RAB40C], the protein stability index runs as follows: (treatment: DMSO) 2.74 ± 0.61; (treatment: MLN4924 1 uM, 8 h) 3.1 ± 0.64.
In the case of QHECVNTDDSYSCHCLKGFTLNPD [MATN2], the protein stability index came to 4.04 ± 0.16 (treatment: DMSO) and 4.15 ± 0.25 (treatment: MLN4924 1 uM, 8 h).
